Experimental data as given in patent publication US6358897B1, “Alkyl trypsin compositions and methods of use in contact lens cleaning and disinfecting systems” (Alcon Laboratories, Inc., priority 1996, dated 2002).

Test system: azocasein
Assay: Stability of Et-trypsin and trypsin in a disinfecting composition (Example 2B), azocasein method
Format: physicochemical
Settings: 37° C., Example 2B composition, 50 μg/ml
Description: Azocasein Method The following solutions are used in this assay: 1) Buffer solution: 0.05 M sodium phosphate buffer containing 0.9% sodium chloride, pH 7.6. 2) Substrate solution: 2 mg/ml azocasein in the buffer solution mentioned above. The assay is initiated by mixing 1 ml of an appropriately diluted (such that the enzyme activity is in the range of standard curve) enzyme composition in phosphate buffer with 2 ml of azocasein substrate solution (2 mg/ml). After incubation at 37° C. for 20 minutes, the mixture is removed from the incubator and 1 ml of trichloroacetic acid to (14% w/v) is added to stop the enzyme reaction. The mixture is vortexed well and allowed to stand at room temperature for 20 minutes. After centrifuging at 2500 rpm (with a Beckman GS-6R Centrifuge) for 15 minutes, the supernatant is filtered with a serum sampler. 2 ml of the clear yellow filtrate is then adjusted to a neutral pH with 2 ml of 0.5 N sodium hydroxide and the absorbance of 440 nm wavelength light is measured with a spectrophotometer. The amount of azocasein hydrolyzed is calculated based on a standard curve of known concentrations of azocasein solution developed under identical conditions. An enzyme activity unit (“AZ U”) is defined as that amount of enzyme which hydrolyzes 1 μg of azocasein substrate/minute at 37° C. The following is an example of the stability of Et-trypsin or Me-trypsin in a disinfecting composition of the present invention as compared to an analogous composition containing trypsin. The enzymes were solubilized in the Example 2B composition. The compositions were stored at 37° or 50° C. for 8 days or 30 hours, respectively. At various time points, enzyme activity was assayed using the azocasein method.

“Trypsin [Native Trypsin, reference compound]” was tested, and the “% Activity Remaining” value (1 Hour) was 86.8%, the “% Activity Remaining” value (2 Hours) was 80.0% and the “% Activity Remaining” value (4 Hours) was 72.7%. For the same substance, the “% Activity Remaining” value (6 Hours) was 62.9%, the “% Activity Remaining” value (8 Hours) was 56.6% and the “% Activity Remaining” value (1 day) was 37.6%. The “% Activity Remaining” value (2 days) was 26.8%, the “% Activity Remaining” value (4 days) was 17.9% and the “% Activity Remaining” value (8 days) was 11.2%.
